This is an account of results in patent CN111378037A.

In the test the target is Human IL33-his (Human IL33 (NP_254274.1) Ser112-Thr270 with a C-terminal 6-histidine tag, expressed in E. coli) (human) (UniProt O95760). Put plainly: cell-based or functional assay.
Chain of UniProt O95760 (O95760 other isoform, or with tags, fused parts or gaps limits assumed, form in doubt): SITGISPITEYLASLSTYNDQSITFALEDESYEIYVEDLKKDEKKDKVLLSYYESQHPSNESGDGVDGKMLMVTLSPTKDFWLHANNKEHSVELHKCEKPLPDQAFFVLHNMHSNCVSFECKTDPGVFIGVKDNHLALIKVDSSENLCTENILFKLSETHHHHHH

The substance 对照抗体 ANB020 (antibody) gave an IC50 of inhibition of IL-5 production by KU812 cells stimulated with IL33 of 0.51 µg/mL.
